The target of assay [1] is ZIKV full-length envelope protein E with A264C, as displayed on virus-like particles (VLP-cvD) (Zika virus (strain PE243)). Kind of assay: non-reducing SDS-PAGE and Western blot of a disulfide-linked dimer; purified VLPs on SDS-PAGE under reducing (DTT) or nonreducing conditions, E detected with the monoclonal antibody DIII-1B. A general note: Immunoblotting shows a protein as a band on a membrane.

Assay [2] deals with ZIKV soluble envelope protein E, covalently stabilized dimer (sE-cvD), A264C, V5-tagged (Zika virus (strain ArD158095)). Kind of assay: non-reducing SDS-PAGE of a disulfide-linked dimer; purified sE proteins on 10% SDS-PAGE under reducing (DTT) and nonreducing conditions, gel stained with InstantBlue.

Here are results for 2 substances from PMC7737734.

In general, stoichiometry N refers to a count of units in the complex or per binding partner. “ZIKV full-length envelope protein E with A264C, as displayed on virus-like particles (VLP-cvD) (natural protein)” returned a stoichiometry N in assay [1] of 2.
Turning to “ZIKV soluble envelope protein E, covalently stabilized dimer (sE-cvD), A264C, V5-tagged (domain or fragment)”, in assay [2], the stoichiometry N was found to be 2.
